The target of one assay is T1, p32 protein (Homo sapiens, UniProt Q07021).
T1 sequence (Q07021 74-282): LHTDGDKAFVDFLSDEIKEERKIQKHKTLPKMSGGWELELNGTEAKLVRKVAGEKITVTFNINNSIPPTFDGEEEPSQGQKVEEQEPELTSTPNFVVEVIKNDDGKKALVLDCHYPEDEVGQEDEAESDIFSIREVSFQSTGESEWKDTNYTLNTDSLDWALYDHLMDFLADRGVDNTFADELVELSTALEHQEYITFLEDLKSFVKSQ
Put plainly: Binding of peptide-displaying T7 phage clones to immobilized p32 protein. Conditions: peptide displayed on T7 phage; compared to LyP-1 phage.

Assay [1] deals with recombinant 6x-His-tagged p32 protein (p32/gC1qR) (UniProt Q07021). As to the kind of experiment: AUC.
Assay [2] addresses T2, recombinant 6x-His-tagged p32 protein (p32/gC1qR) (UniProt Q07021 74-282).
T2 sequence (looked up): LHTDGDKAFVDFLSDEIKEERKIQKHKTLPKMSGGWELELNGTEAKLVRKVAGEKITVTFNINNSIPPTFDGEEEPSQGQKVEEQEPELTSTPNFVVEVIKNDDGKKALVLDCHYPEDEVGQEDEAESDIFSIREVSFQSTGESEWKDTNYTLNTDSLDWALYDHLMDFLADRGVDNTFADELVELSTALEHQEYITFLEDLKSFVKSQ
As to the kind of experiment: fluorescence polarisation.

Ends that are not written are not given here.

For CKRGNRSMC, in the assay with p32 protein, the “phage binding to p32” value is “greatly improved binding to p32 compared to LyP-1 phage”.

With CTRGSRSKC, the “phage binding to p32” value with p32 protein was “greatly improved binding to p32 compared to LyP-1 phage”.

In the case of “recombinant 6x-His-tagged p32 protein (p32/gC1qR) (from UniProt Q07021 74-282) (natural protein; other documents disagree on this pair)”, in assay [1], the stoichiometry N came out at 3.

B1: FAM-labeled LyP-1 peptide (CGNKRTRGC) (peptide)
peptide: CGNKRTRGC
modifications: cysteine pairing not given here; also: FAM label, position not given here
As for B1, in assay [2], the dissociation constant Kd is over 23 µM.

The values are drawn from paper PMC5433940 (Chembiochem : a European journal of chemical biology, 2016).
